For 1 substance, percent of starting activity in the M6P elution fraction, percent of starting activity in the flow through and O.D. results are on record in patent US20050058634A1.

For assay [1], the target named is Soluble cation-independent mannose 6-phosphate receptor (CI-MPR) purified from fetal bovine serum, coupled to Affigel-15 beads (CI-MPR column) (bovine (fetal bovine serum)) (UniProt P08169). In words: CI-MPR column fractionation, beta-glucuronidase activity (FIG. 6).
Assay [2] has the same target. In words: CI-MPR column fractionation; enzyme activity of fraction (starting material 1.41).
For assay [3] the target is unchanged. In words: CI-MPR column fractionation; enzyme activity of fraction eluted with 5 mM M6P (starting material 1.41).

UniProt P08169, sequence (P08169 45-2313 limits assumed): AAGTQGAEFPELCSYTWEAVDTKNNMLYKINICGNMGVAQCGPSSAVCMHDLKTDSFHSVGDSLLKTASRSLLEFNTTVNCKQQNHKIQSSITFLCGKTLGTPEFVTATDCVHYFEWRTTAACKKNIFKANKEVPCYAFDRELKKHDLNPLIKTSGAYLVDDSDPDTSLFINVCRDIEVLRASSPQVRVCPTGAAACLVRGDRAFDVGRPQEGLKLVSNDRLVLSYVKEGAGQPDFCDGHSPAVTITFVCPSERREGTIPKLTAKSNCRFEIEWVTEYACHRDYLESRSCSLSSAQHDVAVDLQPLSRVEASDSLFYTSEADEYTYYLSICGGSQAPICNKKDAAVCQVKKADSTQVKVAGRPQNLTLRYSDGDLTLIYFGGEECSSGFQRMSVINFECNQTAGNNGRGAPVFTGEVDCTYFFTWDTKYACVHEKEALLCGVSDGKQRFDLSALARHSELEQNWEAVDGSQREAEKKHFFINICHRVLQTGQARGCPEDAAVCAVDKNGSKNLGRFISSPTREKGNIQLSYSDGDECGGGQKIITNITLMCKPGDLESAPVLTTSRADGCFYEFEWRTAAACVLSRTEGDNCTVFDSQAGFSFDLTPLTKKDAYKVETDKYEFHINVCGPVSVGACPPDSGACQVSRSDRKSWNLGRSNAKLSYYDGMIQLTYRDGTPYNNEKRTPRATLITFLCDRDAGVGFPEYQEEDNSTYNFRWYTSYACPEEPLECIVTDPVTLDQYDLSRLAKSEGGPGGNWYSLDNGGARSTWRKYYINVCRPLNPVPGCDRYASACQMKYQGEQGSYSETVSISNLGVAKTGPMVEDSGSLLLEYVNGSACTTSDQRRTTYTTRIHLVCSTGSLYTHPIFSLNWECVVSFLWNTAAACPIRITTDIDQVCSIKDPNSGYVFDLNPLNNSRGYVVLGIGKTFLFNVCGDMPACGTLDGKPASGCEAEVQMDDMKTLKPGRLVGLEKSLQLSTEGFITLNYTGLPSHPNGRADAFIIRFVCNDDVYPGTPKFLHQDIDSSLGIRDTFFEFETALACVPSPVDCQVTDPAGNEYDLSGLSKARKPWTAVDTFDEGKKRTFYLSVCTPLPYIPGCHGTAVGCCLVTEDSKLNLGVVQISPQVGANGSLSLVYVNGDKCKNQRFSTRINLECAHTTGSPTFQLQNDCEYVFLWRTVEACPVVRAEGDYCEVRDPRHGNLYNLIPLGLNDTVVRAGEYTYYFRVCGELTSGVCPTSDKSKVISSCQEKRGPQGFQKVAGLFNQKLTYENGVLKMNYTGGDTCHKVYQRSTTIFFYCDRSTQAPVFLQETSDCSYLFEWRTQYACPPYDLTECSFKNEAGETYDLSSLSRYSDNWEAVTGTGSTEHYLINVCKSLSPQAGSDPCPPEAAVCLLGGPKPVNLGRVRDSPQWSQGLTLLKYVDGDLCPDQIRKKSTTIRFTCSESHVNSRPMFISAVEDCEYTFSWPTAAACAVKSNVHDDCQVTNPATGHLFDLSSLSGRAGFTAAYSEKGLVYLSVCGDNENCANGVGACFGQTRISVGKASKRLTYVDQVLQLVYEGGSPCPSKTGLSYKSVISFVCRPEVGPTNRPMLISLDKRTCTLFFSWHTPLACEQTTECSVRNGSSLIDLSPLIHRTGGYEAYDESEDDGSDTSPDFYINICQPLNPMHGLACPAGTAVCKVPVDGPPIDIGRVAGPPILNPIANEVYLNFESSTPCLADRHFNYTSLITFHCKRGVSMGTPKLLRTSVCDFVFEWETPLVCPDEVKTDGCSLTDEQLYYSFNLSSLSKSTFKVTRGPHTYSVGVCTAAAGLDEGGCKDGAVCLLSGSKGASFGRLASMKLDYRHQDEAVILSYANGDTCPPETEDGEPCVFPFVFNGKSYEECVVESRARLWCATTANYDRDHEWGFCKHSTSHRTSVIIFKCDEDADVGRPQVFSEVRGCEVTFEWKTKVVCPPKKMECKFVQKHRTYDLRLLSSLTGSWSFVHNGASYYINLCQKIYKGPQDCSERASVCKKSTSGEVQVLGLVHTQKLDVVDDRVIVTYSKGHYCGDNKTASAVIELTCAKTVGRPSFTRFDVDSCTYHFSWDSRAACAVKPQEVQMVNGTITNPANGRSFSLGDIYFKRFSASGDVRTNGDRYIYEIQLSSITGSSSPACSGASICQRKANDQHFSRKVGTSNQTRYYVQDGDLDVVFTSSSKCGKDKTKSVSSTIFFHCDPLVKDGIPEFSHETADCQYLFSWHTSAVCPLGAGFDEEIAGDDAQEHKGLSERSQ

In assay [1], “oxidized beta-glucuronidase conjugated with phosphopentamannose-hydrazine (enzyme)” yielded a percent of starting activity in the M6P elution fraction of 5% and a percent of starting activity in the flow through of 19%. In assay [2], this substance had an O.D. at 400 nm (beta-glucuronidase activity in column flow-through, unbound) of 0.27 OD 400 nm and an O.D. at 400 nm (beta-glucuronidase activity in final wash) of 0 OD 400 nm. Besides, the O.D. at 400 nm (beta-glucuronidase activity in M6P elution, bound) in assay [3] is 0.06 OD 400 nm.
